# Source: the nanobody polyreactivity screen of Harvey et al. (2022)
# Assay: yeast display, Sf9 membrane polyspecificity reagent, FACS + sequencing; frameworks hold sequencing errors
# In short: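 A synthetic nanobody library was expressed on Saccharomyces cerevisiae BJ5465 by galactose induction for 36–48 hours. The library was stained for 1 hour at 4 °C with 10% biotinylated, detergent-solubilized Sf9 membrane reagent and enriched with streptavidin microbeads before FACS. Low and high (top ~1%) gates were set on anti-HA fluorescence for expression and streptavidin fluorescence for reagent binding, and each polyreactivity label reflects the gate of origin.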
row,Sequence,polyreactivity (PSR sort gate)
1,QVHLVESGGGLVQAGGSLRLSCAASGSTFKRYAMGWYRQAPGKERELVASISQRGGTTYYADSVKGRFTISRDNAKNTVYLQMNSLKPEDTAVYYCANGFGWTRTIYDYWGQGTQVTVSS,high polyreactivity
2,QVQLVESGGGLVQAGGSLRLSCAASGFTFSSNAMGWFRQAPGKERELVAAISFSGTRTYYADSVKGRFTISRDNAKKTVYLQMNSLKPEDTAVYYCAAGRHYGPLSGRTKGMEYWGQGTQVTVSS,high polyreactivity
3,QVQLVESGGGLVQAGGSLRLSCAASGSILDIYAMGWYRQAPGKERELVASISWGGGSTYYADSVKGRFTISRDNAKNTVYLQMNSLKQEDTAVYYCNAVYDLYHYWKFYYWGQGTQVTVSS,low polyreactivity
4,QVHLVESGRGLFQAGGSLRLSCAASGYTFGPYDMGGYRQAPGKERELVAGITLSGGITYYADSVKGRFTISRDNAKNTVYLQMNSLKPQDTAVSYCAAAFYVSYSVIYEYWGHGTQVTVSS,high polyreactivity
5,QVQLVESGGGLVQAGGSLRLSCAASGLTLRWYDMGWYRQAPGKERELVAAITTNGGSTYYADSVKGRFTISRDNAKNTVYLQMNSLKPEDTAVYYCAALYWRSTVGAYSTYEYDYWGQGTQVTVSS,high polyreactivity
6,QVQLVESGGGLVQAGGSLRLSCAASGNIFYINAMGWYRQAPGKERELVAAISSGGRTNYADSVKGRFTISRDNAKNTVYLQMNSLKPEDTAVYYCGAEGPEIKYYYWGQGTQVTVSL,low polyreactivity
7,QVQIEESGGGLVQAGGSLRLSCAASGSIFVVYALGWYRPAPGKERELVAGISRNGGRTYYADSVKGRFTISRDNAKITVYLQMNILKPEDTAVYYCNAYRPSRHDYWGQGTQVTVSS,high polyreactivity
8,QVQLVESGGGLVQAGGSLRLSCAASGPISAIYDMGWDRQAPGKERELVASISGGTSTYYADSVKGRFTISRDNAKNTVYLQMNSLKPEDTAVYYCNAEASSYHGVEDEYDYWGQGTQVTVSS,low polyreactivity
9,QVQLVESGGGLVQARGSLRLSCAASGRTFGLYAMGWYIQAPGKEWELVAAITSGGSTYYADSVKGRFTISRDNAKYTVYLQMNSLTPEDTAVYFCDAEHDYLAQFEYDYWGPGTQVTVSS,low polyreactivity
10,QVQLVESGGGLVQAGGSLRLSCAASGRIFYLNVMGWYRQAPGKERELVAAITRRDVTTYADSVKGRFTISRDNAKNTVYLQMNSLKPEDTAVYYCNAEYVPYYEYESWGQGTQVTVSS,low polyreactivity
11,QVQLVESGGGLVQAGGSLRLSCAASGRTFYYAMGWYRQAPGKERYADSVKGRVTISRDNAKNTVYLQMNSLKPEETAVYYCAAKVPEPPSLDESDYWGQGTQVTVSS,low polyreactivity
12,QVQLVESGGGLVQAGGSLRLSCAASGRTFVFNTMGWYRQAPGKERELVADISRGDSTNYADSVKGRFTISRDNAKNTVYLQMNSLKPEDTAVYYCAAKWRWSGSILYRYGYGYWGQGTQVTVSS,high polyreactivity
13,QVQLVESRGGLVQAGGSLRLSCGASGFIFKPYAMGWYRQAPGKERELVASISTGARTYYADSVKGRFTISRDNAKNTVYLQMNSLKPEDTGVYYCAAAYSRWITRYDYWGQGTQVTVSS,high polyreactivity
14,QFQLVESGGGLVQAGGSLRLTCAASGNIFADYAMGWYRQAPGKERELVAAISRGGITSYADSVKGRFTISRDNAKNTVYLQMNSRKPEDTAVYYCATVRYDVYDSLGFGYWGQGTQVTVSS,low polyreactivity
15,QVQLVESGGGLVQAGGSLRLSCAASGGPFTYYTMGCYRQAPGKERELVAAISTGGRTYYADSVKGRFTISRDNAKNTVYLQMNCLKAEATAVYYCYPLYDETDVLGEFDYWGQGTQVTVSS,low polyreactivity
16,QVQLVESGGGLVQAGGSLRLSCAASGRTFRGNAMGWYRQAPGKERELVAAISWSGGRTYYADSVKGRFTISRDNAKNTVYLQMNSLKPEDTAVYYCAAGVPKNGQAGYDYWGQGTQVTVSS,high polyreactivity
17,QVQLVESGGGLVQAGGSLRLSCAASGGTFYDYAMGWYRQAPGKERELVAAISASGDSTYYADSVKGRFTISRDNAKNTVYLQMNSLKPEDTAVYYCAAEFTAFDGFDYWGQGTQVNVSS,low polyreactivity
18,QVQLVESGGGLVQAGGSLRLSCAASGRTFWWNAMGWYRQAPGKERELVASISSGGSTNYADSVKGRFTISRDNAKKTVYLQMNSLKPEDTAVYYCARGYRWRGTVSRWSRYYQAHDYWGQGTQVTVSS,low polyreactivity
19,QVQLVESGGGLVQAGGSLRLSCAASGSIIPLYAMGWYRQAPGKERELVAAISRRGGSTYYADSVKGRFTISRDNAKNTVYLQMNSLKPEDTAVYYCSVDSPSPSRGPRFYYWGQGTQVTVSS,high polyreactivity
20,QVQLVESGGGLVQAGGSLRLSCAASGYTFAPYVMGWYRPAPGKERELVARISNNGGSTYYADSVKGRFTISRDNAKNTVYLQMNSLKPEDTAVYYCAADVGLIYFRYYYWGQGTQVTVSS,low polyreactivity
21,QVQLVESGGGLVQAGGSLRLSCADSGSTFWYDMGWYRQAPGKERELVAAISDAGSTYYADSVKGRFTISRDNAKITVYLQMNSLKPEDTGFYFCAADGVYWRWYLYTFWMDYWGQGTQVTVSS,low polyreactivity
22,QVQLVESGGGLVHAGGSLRLSCAASGRIFVRNDMGCYRQAPGKERELVAAISWDGGSTYYADSVKGRFTISRDNAKNTVYLQMNSLKPEDTAVYYCATDATRPWYDYWGQGTQVTVSS,low polyreactivity

row,Sequence,polyreactivity (PSR sort gate)
1,QVQLVESGGGLVQAGGSLRLSCAASGSTFLYYAMGWSRQAPGKEMELVAAISGSGGSTYYADSVKGRFTISRDNAKNTVYLQMNSLKPEDTAVYYCNAVARRHGLGPYDYWGQGTQVTVSS,high polyreactivity
2,QVQLVESGGGLVQAGGSLRLSCAASGSIIWLYAMGWYRQAPGKERELVAAISSGGSTYYADSVKGRFTISRDNAKNTVYLQMNSLKPEDTAVYYCAATYSSFRRYPGAHYRFGYWGQGSQVTVSS,high polyreactivity
3,QVQHVESGGALVQAGGSLRLSCAASGRIFSPNAMGWYIQAPGKEWDLVAAISSGGSTYADSVKGRFTISRDNAKNTVYLQMNSLKPEDTAVYYCARTYQWTVAGRYRAYHAGYYWGQGTQVTVSS,high polyreactivity
4,QVQRVESGGGLVQAGGSLRLSCAASGRIFSIYGMGWYRQAPGKERELVAVISGSVGITYYADSVKGRFTISRDNAKNTVYLQINSLKPEDTAVFYCNAKVRRRKYDYWGQGTQVTVSS,high polyreactivity
5,QVQLVESGGCLVQAGRSLRLSCAASGRTFPTYAMGWYRQAPGKERELVAAIRISGGRTYYADSVKGRFTISRDISKNTVYLQMNSLKPEDTAVYYCATRDRAGYYYWGQGTQVTVSS,high polyreactivity
6,QVQLVESGGGLVQAGGSLRLSCAASGFTFTRYAMGWYRQAPGKERELVAAISWNSGSTYYADSVKGRFTISRDNAKNTVYLQMNSLKPEDTAVYYCAAAFLRVYYGYTGAFDYWGQGTQVTVSS,high polyreactivity
7,QVQLVESGGVLVQAGGRLRLSCAASGLTFNENVMGWYRQAPGKERELVAAISTGASTYYADSVKGRFTISRDNAKNTVYLQMNSLKPEDTAVYYCAKRVNRWYGYWGQGTQVTVSS,high polyreactivity
8,QVQLVESGGGLVQAGGSLRLICAASGGIFGINAMGWYRPSPVKERELVAAINLSGGRTYYADSVKGRFTISRDNAKKTVYLLMNSLKPEDSAVYYCAAYYGYSLYGHYEYWGQGTQVTVSS,high polyreactivity
9,QVQLVESGGGLVQAGGSLRLSCAASGSTFRYYAMGWYRQAPGKERELVAAISGSGGSTYYADSVKGRFTISRDNAKNTVYFQMNSLKPEDTAVYYCNKVYARLVLSYDSWGQGTQVTVSS,high polyreactivity
10,QVQLQESGGGLVQAGGSLLSCAASGTISSYREMGWYRQAPGKELELVAGIGVGTITYYADSVKGRFTISRDNAKNTVYLQMNSLKPEDTAVYYCAAHIDGNDSHAYWGQGTQVTVSS,low polyreactivity
11,QVQLVESGGGLVQAGGSLRLSCAASGGIFDYYAMGWYRQAPGKERELVAAISSSGGSTYYADSVKGRFTISRDNAKNTVYLQMNSLKPEDTAVYYCNADRRRRFGYWGQGTQVTVSS,high polyreactivity
12,QVQLVESGGGLVQAGGSLRLSCAASGIIFATYAMGWYRQAPGKERELVASISTGDSTNYADSVKGRFTISRDNAKNTVYLQMNSLKPEDTAVYYCNADSYPYYVYGSNDYWGQGTQVTVSS,low polyreactivity
13,QVQLVDSGGGLVQAGGSLRLSCAASGRIFHVYAMGWYRKAPGKERELLADITWSGGSTYYADSVKGRFTISRDNAKNTVYLQMNSLKPEDTAVYYCAAAYYGYARWRGPRKMDYWGQGTQVTVSS,high polyreactivity
14,QDQLVESGGGLVQAGGSLRLSCAATGRIFKLYAMGWYRQAPGKERELVAAISSSGTRTYYADSVKGRFTISRDNAKNTVYLHMNSMKPEDTAVYYCAKRWPRKGNYPGSDYWGQGTQVTVSS,high polyreactivity
15,QVQLVESGGGLVQAGGSLRLSCADSGITFSVYAMGWYRQAPGKERELVASISSGGTSTYYADSVKGRFTISRDNAKNTVYLQMNSQKPEDTAVYYCAAYSYYTGDQYSYDYWGQGTQVTVSS,low polyreactivity
16,QVQLVESGGGLVQAGGSLRLSCAASGRIVWSYGMGWYRQAPGKERELVAAITNTGDGTYYADSVKGRFTISRDNAKNTVYLQMNSLKPEDTAVYYCAVDYRGYWYWEYDYWGQGTQVTVSS,high polyreactivity
17,QVQLVESGGGLVQAGGSLRLSCAASGRTFGYYAMGWYRQAPGKERELVAAISTRSGSTYYADSVKGRFTISRDNAKNTVYLQMNSLKPEDTAVYYCDADSYPDYDYWGQGTQVTVSS,low polyreactivity
18,QVQLVESGGGLVQAGGSLRLSCAASGSIFRRYAMGGYRQAPGKERELVAAITSGDTTKYADSVKGRFTISRDNAKNTVYLQMNSLKPEDTAVYYCNKKGWPRFVHGFLRRDDYWGQGTQVTVSS,low polyreactivity
19,QVQLVESGGGLVQAGGSLRLSCAASGSTFPDNAMVWYRQAPGKEREFVATITWRGGRTNYADSVKGRFTISRDNAMNTVYLQMNSLKPEDTAFYYCDKVVRYARSNEYDTWGQGTQLTVSS,low polyreactivity
20,QVQLVESGGGLVQAGGSLRLSCAASGFIFVVYTMGWYRQAPGKERELVAAITSGGSTYYADSVKGRFTISRDNAKNTVYLQMNSLKPEDTAVYYCYALASRYPAYYYWGQGTQVTVSS,low polyreactivity
21,QDQLVESGGGLVLSGGRLRLSCAASGSNFSFYAMGWYRQAPGKERELVAGIRWRGGTSTFYADSVKWRFTISRDNAKNTVYLQMNSLKPEDTAVYYCAAKRRTGGNGYWGQGTQVTVSS,high polyreactivity
